The results in this text go back to article PMC12318183, “Structure reveals a regulation mechanism of plant outward-rectifying K^+ channel GORK by structural rearrangements in the CNBD–Ankyrin bridge” (Proceedings of the National Academy of Sciences of the …, 2025).

In series [1] the target is GORK(CA-ANK)_(AKT1) chimeric channel (Arabidopsis thaliana | Arabidopsis).
Series [2] concerns the molecule itself. Kind of series: cryo-EM structure; single-particle cryo-EM of purified GORK at 4 mg/ml; SEC buffer 0.02% GDN, 150 mM KCl, 20 mM Tris pH 8.0, 2 mM DTT; consensus map and five maps from ANK-focused 3D classification.

Turning to “CIPK23/CBL1 protein kinase complex (from UniProt Q93VD3 1-482; O81445 1-213)”, the outward K+ current of GORK(CA-ANK) (AKT1) in Xenopus oocytes with coexpressed CIPK23/CBL1 against without, two-electrode voltage clamp, at 70 mV in series [1] was 3 fold.

B1: GUARD CELL OUTWARD-RECTIFYING K+ (GORK) channel (natural protein, Arabidopsis thaliana)
chain: GRLRRRQEIIDHEEEESNDDVSSRRGKLSLAETFRWLDSSEHRRIETDGHNDYKYIIHPKNRWYKAWEMFILVWAIYSSLFTPMEFGFFRGLPERLFVLDIVGQIAFLVDIVLQFFVAYRDTQTYRTVYKPTRIAFRYLKSHFLMDFIGCFPWDLIYKASGKHELVRYLLWIRLFRVRKVVEFFQRLEKDTRINYLFTRILKLLFVEVYCTHTAACIFYYLATTLPPENEGYTWIGSLKLGDYSYENFREIDLWKRYTTALYFAIVTMATVGYGDIHAVNLREMIFVMIYVSFDMVLGAYLIGNITALIVKGSNTERFRDKMNDLISFMNRKKLGRDLRSQITGHVRLQYDSHYTDTVMLQDIPASIRAKIAQLLYLPYIKKVPLFKGCSTEFINQIVIRLHEEYFLPGEVITEQGNVVDHLYFVCEGLLEALVTKTDGSEESVTLLGPHTSFGDISIICNISQPFTVRVCELCHLLRLDKQSFSNILEIYFHDGRTILNNIMEEKESNDRIKKLESDIVIHIGKQEAELALKVNSAAFQGDFYQLKSLIRSGADPNKTDYDGRSPLHLAACRGYEDITLFLIQEGVDVNLKDKFGHTPLFEAVKAGQEGVIGLLVKEGASFNLEDSGNFLCTTVAKGDSDFLKRLLSSGMNPNSEDYDHRTPLHVAASEGLFLMAKMLVEAGASVISKDRWGNSPLDEARLCGNKKLIKLLEDVKNAQSSIYPSSLRELQEERIERRKCTVFPFHPQEAKEERSRKHGVVVWIPSNLEKLIVTAAKELGLSDGASFVLLSEDQGRITDIDMISDGHKLYMISDTTDQT
notes: GORK outward-rectifying K+ channel, Arabidopsis thaliana, UniProt Q94A76; optimised synthetic coding DNA; positions counted from the initial Met; the model covers about residues 50-720; No step that removes a tag is described; Solubilised in LMNG/CHS, kept in GDN; also called GORKWT1; GORKWT2
Turning to B1, the stoichiometry N (in general, a count of units in the complex or per binding partner) in series [2] amounted to 4.
